# Laboratory results: paper doi:10.1101/2022.05.09.491158
# Molecular target: purified recombinant I-A^b carrying a cleavable linker peptide (mouse)
# Assay: fluorescent peptide competition binding assay
substance,measurement,value
"NP peptide Q2, P2 (Ser to Gln) (from UniProt P03466 311-325)",reduction in peptide-MHC binding (against the unsubstituted peptide),3.4
